Laboratory results: publication PMC10033409, “Autoregulation of GPCR signalling through the third intracellular loop” (Nature, 2023)

Tests used:
[1] = tested on: β2AR–Gs peptide FRET sensor; assay: ∆FRET assay, β2AR–Gs peptide SPASM FRET sensor
[2] = biological target: β2AR ICL3 FRET sensor, β2AR(L258Azi/Y350Azi/∆351–413) (Homo sapiens, UniProt P07550, L258F/Y350F); assay: Time-correlated single photon counting FRET assay, β2AR ICL3 FRET sensor (AZDye488/AZDye546); settings: in combination with isoproterenol
Description: Cell membranes were prepared following the procedure in ‘Crude cell membrane extracts’ through the first ultracentrifugation step (135,000g, 25 min, 4 °C). […] Solution was homogenized, first by passing through a 1 ml micropipette 10 times, then passing through a 20-gauge needle 10 times. To initiate the reaction, sodium ascorbate (50 mM) was added to the mixture and mixed by pipetting (2 ml final volume). Reactions were incubated with mild shaking (500 rpm) for 30 min at 25 °C.
For conditions without drug, peptide or nanobody, an equivalent volume of assay buffer was added. Reactions were equilibrated for 5 min prior to reading. […] Time-resolved fluorescence decay data were fit to the equation: Decay=α1e^−t/τ^1+α2e^−t/τ^2+α3e^−t/τ^3
Amplitude-weighted average lifetimes (τavg) were calculated from the three-exponential decay equation: τavg=(α1τ1+α2τ2+α3τ3)/(α1+α2+α3)
Each condition was performed in technical duplicate or triplicate, depending on sensor yield.

PTH1R–Gs peptide = assay: PTH1R-luciferase complementation reporter assay, Gs peptide; format: biochemical, human; settings: PTH1R construct named by the receptor or protein whose sequence replaces ICL3 (WT = wild-type); X axis of Figure 5G
PTH1R–Gq peptide = assay: PTH1R-luciferase complementation reporter assay, Gq peptide; format: biochemical, human; settings: PTH1R construct named by the receptor or protein whose sequence replaces ICL3 (WT = wild-type); Y axis of Figure 5G
Description: For PTH1R luciferase complementation reporter assays, cells were seeded the day prior to transfection at 25-30% confluence on 12-well plates. For each transfection, 0.5 μg DNA, 1.5 μl X-tremeGENE HP, and 100 μl Opti-MEM were combined, incubated for 15-20 min, and added to seeded wells. For each mutant, PTH1R-Gs peptide, PTH1R-Gq peptide and PTH1R-(no peptide) constructs were transfected in parallel. Spep and Qpep constructs were transfected 24 h prior to collection, and no-peptide constructs were transfected 18 h before collection. […] Media in each well was used to gently shear and resuspend the cells by pipetting. The cell mixture was centrifuged (3 min, 300g) and the media was aspirated. Cell pellet was resuspended in 1 ml PBS and centrifuged again as above. […] Cellular debris was removed by centrifugation (1,000g for 1 min). To collect additional vesicles, debris was resuspended in 0.3 ml PBS, briefly vortexed, and centrifuged again (1,000g for 1 min). The ~0.9 ml of combined decanted supernatant was centrifuged one additional time (1,000g for 2 min) to better remove cellular debris. […] Vesicle samples were collected in a 96-well clear bottom plate and assayed for TagRFP fluorescence (Tecan Spark, excitation 521 nm, emission 585 nm, gain 150). For each set of constructs for a given […] ([…] control), samples were diluted to the lowest TagRFP counts. […] The plate was tapped 2-3 times to mix, and the kinetic read was resumed. Moving averages were computed for each kinetic trace (3-point averages for 5 min equilibration, 8-point moving averages post-drug treatment). Each kinetic trace was normalized to the last point of the pre-drug equilibration. The maximum luminescence value that appeared stable over time was used for further analysis. Specific Spep and Qpep signals were calculated by subtracting the control value from the Spep value and the Qpep value for a given experiment.

Molecule	effect on agonist-induced FRET of β2AR–G peptide sensor ([1]; wild-type β2AR–Gs peptide FRET sensor)	effect on agonist-induced FRET of β2AR–G peptide sensor ([1]; β2AR(∆ICL3), Gs and Gq peptide sensors)	effect on FRET efficiency of the ICL3 FRET sensor treated with isoproterenol [2]	Specific Peptide Signal, Gs (Average) (PTH1R–Gs peptide)	Specific Peptide Signal, Gq (Average) (PTH1R–Gq peptide)
Nb6B9: nanobody that binds the receptor’s cytosolic cavity in the active state (antibody, V domains shown) VH: QVQLQESGGGLVQAGGSLRLSCAASGSIFALNIMGWYRQAPGKQRELVAAIHSGGTTNYANSVKGRFTISRDNAANTVYLQMNSLKPEDTAVYYCNVKDFGAIIYDYDYWGQGTQVTVSS	significantly quenched FRET	quenched the interactions of both the Gs and Gq peptides with the receptor	quenched		
DRD3 (protein, UniProt P35462 1-400, looked up) D(3) dopamine receptor: MASLSQLSGHLNYTCGAENSTGASQARPHAYYALSYCALILAIVFGNGLVCMAVLKERALQTTTNYLVVSLAVADLLVATLVMPWVVYLEVTGGVWNFSRICCDVFVTLDVMMCTASILNLCAISIDRYTAVVMPVHYQHGTGQSSCRRVALMITAVWVLAFAVSCPLLFGFNTTGDPTVCSISNPDFVIYSSVVSFYLPFGVTVLVYARIYVVLKQRRRKRILTRQNSQCNSVRPGFPQQTLSPDPAHLELKRYYSICQDTALGGPGFQERGGELKREEKTRNSLSPTIAPKLSLEVRKLSNGRLSTSLKLGPLQPRGVPLREKKATQMVAIVLGAFIVCWLPFFLTHVLNTHCQTCHVSPELYSATTWLGYVNSALNPVIYTTFNIEFRKAFLKILSC				0.72	0.08
CNR1 (protein, UniProt P21554 1-472, looked up) Cannabinoid receptor 1: MKSILDGLADTTFRTITTDLLYVGSNDIQYEDIKGDMASKLGYFPQKFPLTSFRGSPFQEKMTAGDNPQLVPADQVNITEFYNKSLSSFKENEENIQCGENFMDIECFMVLNPSQQLAIAVLSLTLGTFTVLENLLVLCVILHSRSLRCRPSYHFIGSLAVADLLGSVIFVYSFIDFHVFHRKDSRNVFLFKLGGVTASFTASVGSLFLTAIDRYISIHRPLAYKRIVTRPKAVVAFCLMWTIAIVIAVLPLLGWNCEKLQSVCSDIFPHIDETYLMFWIGVTSVLLLFIVYAYMYILWKAHSHAVRMIQRGTQKSIIIHTSEDGKVQVTRPDQARMDIRLAKTLVLILVVLIICWGPLLAIMVYDVFGKMNKLIKTVFAFCSMLCLLNSTVNPIIYALRSKDLRHAFRSMFPSCEGTAQPLDNSMGDSDCLHKHANNAASVHRAAESCIKSTVKIAKVTMSVSTDTSAEAL				0.53	0.10
5HT2C (protein, UniProt P28335 33-458, looked up) 5-hydroxytryptamine receptor …: IVTDIFNTSDGGRFKFPDGVQNWPALSIVIIIIMTIGGNILVIMAVSMEKKLHNATNYFLMSLAIADMLVGLLVMPLSLLAILYDYVWPLPRYLCPVWISLDVLFSTASIMHLCAISLDRYVAIRNPIEHSRFNSRTKAIMKIAIVWAISIGVSVPIPVIGLRDEEKVFVNNTTCVLNDPNFVLIGSFVAFFIPLTIMVITYCLTIYVLRRQALMLLHGHTEEPPGLSLDFLKCCKRNTAEEENSANPNQDQNARRRKKKERRPRGTMQAINNERKASKVLGIVFFVFLIMWCPFFITNILSVLCEKSCNQKLMEKLLNVFVWIGYVCSGINPLVYTLFNKIYRRAFSNYLRCNYKVEKKPPVRQIPRVAATALSGRELNVNIYRHTNEPVIEKASDNEPGIEMQVENLELPVNPSSVVSERISSV				0.48	-0.00493
ADA1A (protein, UniProt P35348 1-466, looked up) Alpha-1A adrenergic receptor: MVFLSGNASDSSNCTQPPAPVNISKAILLGVILGGLILFGVLGNILVILSVACHRHLHSVTHYYIVNLAVADLLLTSTVLPFSAIFEVLGYWAFGRVFCNIWAAVDVLCCTASIMGLCIISIDRYIGVSYPLRYPTIVTQRRGLMALLCVWALSLVISIGPLFGWRQPAPEDETICQINEEPGYVLFSALGSFYLPLAIILVMYCRVYVVAKRESRGLKSGLKTDKSDSEQVTLRIHRKNAPAGGSGMASAKTKTHFSVRLLKFSREKKAAKTLGIVVGCFVLCWLPFFLVMPIGSFFPDFKPSETVFKIVFWLGYLNSCINPIIYPCSSQEFKKAFQNVLRIQCLCRKQSSKHALGYTLHPPSQAVEGQHKDMVRIPVGSRETFYRISKTDGVCEWKFFSSMPRGSARITVSKDQSSCTTARVRSKSFLQVCCCVGPSTPSLDKNHQVPTIKVHTISLSENGEEV				0.59	0.14
CCK2 (protein, UniProt P32239 1-447, looked up) Gastrin/cholecystokinin type …: MELLKLNRSVQGTGPGPGASLCRPGAPLLNSSSVGNLSCEPPRIRGAGTRELELAIRITLYAVIFLMSVGGNMLIIVVLGLSRRLRTVTNAFLLSLAVSDLLLAVACMPFTLLPNLMGTFIFGTVICKAVSYLMGVSVSVSTLSLVAIALERYSAICRPLQARVWQTRSHAARVIVATWLLSGLLMVPYPVYTVVQPVGPRVLQCVHRWPSARVRQTWSVLLLLLLFFIPGVVMAVAYGLISRELYLGLRFDGDSDSDSQSRVRNQGGLPGAVHQNGRCRPETGAVGEDSDGCYVQLPRSRPALELTALTAPGPGSGSRPTQAKLLAKKRVVRMLLVIVVLFFLCWLPVYSANTWRAFDGPGAHRALSGAPISFIHLLSYASACVNPLVYCFMHRRFRQACLETCARCCPRPPRARPRALPDEDPPTPSIASLSRLSYTTISTLGPG				0.42	0.12
